Test results from patent publication US20240279325A1 (Chugai, published 2024).

T1: FcγRIIb extracellular domain with C-terminal His tag (human, UniProt P31994 43-217)
T1 construct: extracellular domain
T1 sequence (looked up): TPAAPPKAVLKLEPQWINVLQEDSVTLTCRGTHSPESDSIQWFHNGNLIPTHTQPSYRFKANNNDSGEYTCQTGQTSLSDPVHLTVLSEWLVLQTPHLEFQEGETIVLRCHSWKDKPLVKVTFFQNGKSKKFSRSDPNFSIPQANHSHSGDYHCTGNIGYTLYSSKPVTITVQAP

T2: FcγRIIa type R (allotype R131) extracellular domain with C-terminal His tag (human, UniProt P12318 34-217)
T2 construct: extracellular domain; also called FcγRIIaR; FcγRIIa R type
T2 sequence (looked up): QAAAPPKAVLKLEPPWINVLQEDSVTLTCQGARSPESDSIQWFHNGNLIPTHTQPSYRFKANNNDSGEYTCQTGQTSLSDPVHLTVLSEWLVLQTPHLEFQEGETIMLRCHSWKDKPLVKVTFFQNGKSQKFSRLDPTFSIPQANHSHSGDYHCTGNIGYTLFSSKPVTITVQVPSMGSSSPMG


What was measured:
[1] = target: T3, human FcγRIIIa type V (allotype V158) extracellular domain with C-terminal His tag (human, UniProt P08637 17-208); assay: SPR (Biacore), antibody captured, FcγR analyte
T3 construct: also called FcγRIIIaV
T3 sequence (P08637 other isoform, or with tags, fused parts or gaps): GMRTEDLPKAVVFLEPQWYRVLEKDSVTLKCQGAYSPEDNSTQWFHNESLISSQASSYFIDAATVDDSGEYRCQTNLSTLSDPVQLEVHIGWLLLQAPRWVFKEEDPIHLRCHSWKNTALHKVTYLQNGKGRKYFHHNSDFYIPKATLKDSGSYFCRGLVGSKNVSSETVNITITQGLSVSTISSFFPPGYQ

[2] = target: T1, FcγRIIb extracellular domain with …; assay: SPR; KD for FcγRIIaR divided by KD for FcγRIIb
[3] = target: T1, FcγRIIb extracellular domain with …; assay: SPR; KD for FcγRIIaH divided by KD for FcγRIIb
[4] = target: T1, FcγRIIb extracellular domain with …; assay: SPR; KD of IL6R-B3/IL6R-L divided by KD of the variant
[5] = target: T2, FcγRIIa type R (allotype R131) …; assay: as above

Row | Kd [1] [µM] | KD(IIaR)/KD(IIb) [2] | KD(IIaH)/KD(IIb) [3] | KD(IIb) OF PARENT POLYPEPTIDE/KD(IIb) OF ALTERED POLYPEPTIDE [4] | KD(IIaR) OF PARENT POLYPEPTIDE/KD(IIaR) OF ALTERED POLYPEPTIDE [5] | Binder
1 | 78 |  |  |  |  | IL6R-BP912/IL6R-L (antibody, human IgG1, kappa, name in EU numbering, Alterations introduced into IL6R-B3; also called P238D/A330R; copies: 2 + 2) heavy: QVQLQESGPGLVKPSETLSLTCAVSGHSISHDHAWSWVRQPPGEGLEWIGFISYSGITNYNPSLQGRVTISRDNSKNTLYLQMNSLRAEDTAVYYCARSLARTTAMDYWGEGTLVTVSSASTKGPSVFPLAPSSKSTSGGTAALGCLVKDYFPEPVTVSWNSGALTSGVHTFPAVLQSSGLYSLSSVVTVPSSSLGTQTYICNVNHKPSNTKVDKKVEPKSCDKTHTCPPCPAPELLGGDSVFLFPPKPKDTLMISRTPEVTCVVVDVSHEDPEVKFNWYVDGVEVHNAKTKPREEQYNSTYRVVSVLTVLHQDWLNGKEYKCKVSNKALPRPIEKTISKAKGQPREPQVYTLPPSRDELTKNQVSLTCLVKGFYPSDIAVEWESNGQPENNYKTTPPVLDSDGSFFLYSKLTVDKSRWQQGNVFSCSVMHEALHNHYTQESLSLSP light: not shown
2 |  | 17.1 | 241 | 67.3 | 1.4 | IL6R-BP484/IL6R-L (antibody, human IgG1, kappa, name in EU numbering, copies: 2 + 2) heavy: QVQLQESGPGLVKPSETLSLTCAVSGHSISHDHAWSWVRQPPGEGLEWIGFISYSGITNYNPSLQGRVTISRDNSKNTLYLQMNSLRAEDTAVYYCARSLARTTAMDYWGEGTLVTVSSASTKGPSVFPLAPSSKSTSGGTAALGCLVKDYFPEPVTVSWNSGALTSGVHTFPAVLQSSGLYSLSSVVTVPSSSLGTQTYICNVNHKPSNTKVDKKVEPKSCDKTHTCPPCPAPDLLGDDSVFLFPPKPKDTLMISRTPEVTCVVVDVAEDDGEVKFNWYVDGVEVHNAKTKPREEQYNSTYRVVSVLTVLHQDWLNGKEYKCKVSNKALPAPIEKTISKAKGQPREPQVYTLPPSRDELTKNQVSLTCLVKGFYPSDIAVEWESNGQPENNYKTTPPVLDSDGSFFLYSKLTVDKSRWQQGNVFSCSVMHEALHNHYTQESLSLSP light: not shown
3 |  |  | 231 | 39.7 | 0.8 | IL6R-BP483/IL6R-L (antibody, human IgG1, kappa, name in EU numbering, copies: 2 + 2) heavy: QVQLQESGPGLVKPSETLSLTCAVSGHSISHDHAWSWVRQPPGEGLEWIGFISYSGITNYNPSLQGRVTISRDNSKNTLYLQMNSLRAEDTAVYYCARSLARTTAMDYWGEGTLVTVSSASTKGPSVFPLAPSSKSTSGGTAALGCLVKDYFPEPVTVSWNSGALTSGVHTFPAVLQSSGLYSLSSVVTVPSSSLGTQTYICNVNHKPSNTKVDKKVEPKSCDKTHTCPPCPAPDLLGDDSVFLFPPKPKDTLMISRTPEVTCVVVDLAEEDGEVKFNWYVDGVEVHNAKTKPREEQYNSTYRVVSVLTVLHQDWLNGKEYKCKVSNKALPAPIEKTISKAKGQPREPQVYTLPPSRDELTKNQVSLTCLVKGFYPSDIAVEWESNGQPENNYKTTPPVLDSDGSFFLYSKLTVDKSRWQQGNVFSCSVMHEALHNHYTQESLSLSP light: not shown
4 |  | 33.8 | 730 | 2700 | 28.3 | IL6R-BP487/IL6R-L (antibody, human IgG1, kappa, name in EU numbering, copies: 2 + 2) heavy: QVQLQESGPGLVKPSETLSLTCAVSGHSISHDHAWSWVRQPPGEGLEWIGFISYSGITNYNPSLQGRVTISRDNSKNTLYLQMNSLRAEDTAVYYCARSLARTTAMDYWGEGTLVTVSSASTKGPSVFPLAPSSKSTSGGTAALGCLVKDYFPEPVTVSWNSGALTSGVHTFPAVLQSSGLYSLSSVVTVPSSSLGTQTYICNVNHKPSNTKVDKKVEPKSCDKTHTCPPCPAPDLLGDDSVFLFPPKPKDTLMISRTPEVTCVVIDVAEEDGEVKFNWYVDGVEVHNAKTKPREEQYNSTYRVVSVLTVLHQDWLNGKEYKCKVSNKALPRPIEKTISKAKGQPREPQVYTLPPSRDELTKNQVSLTCLVKGFYPSDIAVEWESNGQPENNYKTTPMVLDSDGSFFLYSKLTVDKSRWQQGNVFSCSVMHEALHNHYTQESLSLSP light: not shown
5 |  | 19.6 | 637 | 27.4 | 0.5 | IL6R-BP269/IL6R-L (antibody, human IgG1, kappa, name in EU numbering, copies: 2 + 2) heavy: QVQLQESGPGLVKPSETLSLTCAVSGHSISHDHAWSWVRQPPGEGLEWIGFISYSGITNYNPSLQGRVTISRDNSKNTLYLQMNSLRAEDTAVYYCARSLARTTAMDYWGEGTLVTVSSASTKGPSVFPLAPSSKSTSGGTAALGCLVKDYFPEPVTVSWNSGALTSGVHTFPAVLQSSGLYSLSSVVTVPSSSLGTQTYICNVNHKPSNTKVDKKVEPKSCDKTHTCPPCPAPELLGDDSVFLFPPKPKDTLMISRTPEVTCVVVDVSEEDGEVKFNWYVDGVEVHNAKTKPREEQDNSTYRVVSVLTVLHQDWLNGKEYKCKVSNKALPAPIEKTISKAKGQPREPQVYTLPPSRDELTKNQVSLTCLVKGFYPSDIAVEWESNGQPENNYKTTPPVLDSDGSFFLYSKLTVDKSRWQQGNVFSCSVMHEALHNHYTQESLSLSP light: not shown
6 |  | 42.8 | 870 | 3100 | 25.7 | IL6R-BP489/IL6R-L (antibody, human IgG1, kappa, name in EU numbering, copies: 2 + 2) heavy: QVQLQESGPGLVKPSETLSLTCAVSGHSISHDHAWSWVRQPPGEGLEWIGFISYSGITNYNPSLQGRVTISRDNSKNTLYLQMNSLRAEDTAVYYCARSLARTTAMDYWGEGTLVTVSSASTKGPSVFPLAPSSKSTSGGTAALGCLVKDYFPEPVTVSWNSGALTSGVHTFPAVLQSSGLYSLSSVVTVPSSSLGTQTYICNVNHKPSNTKVDKKVEPKSCDKTHTCPPCPAPDLLGDDSVFLFPPKPKDTLMISRTPEVTCVVIDVAEEDGEVKFNWYVDGVEVHNAKTKPREEQDNSTYRVVSVLTVLHQDWLNGKEYKCKVSNKALPRPIEKTISKAKGQPREPQVYTLPPSRDELTKNQVSLTCLVKGFYPSDIAVEWESNGQPENNYKTTPMVLDSDGSFFLYSKLTVDKSRWQQGNVFSCSVMHEALHNHYTQESLSLSP light: not shown
7 |  | 20.5 | 350 | 160 | 2.8 | IL6R-BP481/IL6R-L (antibody, human IgG1, kappa, name in EU numbering, copies: 2 + 2) heavy: QVQLQESGPGLVKPSETLSLTCAVSGHSISHDHAWSWVRQPPGEGLEWIGFISYSGITNYNPSLQGRVTISRDNSKNTLYLQMNSLRAEDTAVYYCARSLARTTAMDYWGEGTLVTVSSASTKGPSVFPLAPSSKSTSGGTAALGCLVKDYFPEPVTVSWNSGALTSGVHTFPAVLQSSGLYSLSSVVTVPSSSLGTQTYICNVNHKPSNTKVDKKVEPKSCDKTHTCPPCPAPDLLGDDSVFLFPPKPKDTLMISRTPEVTCVVIDVAEEDGEVKFNWYVDGVEVHNAKTKPREEQYNSTYRVVSVLTVLHQDWLNGKEYKCKVSNKALPAPIEKTISKAKGQPREPQVYTLPPSRDELTKNQVSLTCLVKGFYPSDIAVEWESNGQPENNYKTTPPVLDSDGSFFLYSKLTVDKSRWQQGNVFSCSVMHEALHNHYTQESLSLSP light: not shown
8 |  | 17 | 375 | 25.8 | 0.5 | IL6R-BP262/IL6R-L (antibody, human IgG1, kappa, name in EU numbering, copies: 2 + 2) heavy: QVQLQESGPGLVKPSETLSLTCAVSGHSISHDHAWSWVRQPPGEGLEWIGFISYSGITNYNPSLQGRVTISRDNSKNTLYLQMNSLRAEDTAVYYCARSLARTTAMDYWGEGTLVTVSSASTKGPSVFPLAPSSKSTSGGTAALGCLVKDYFPEPVTVSWNSGALTSGVHTFPAVLQSSGLYSLSSVVTVPSSSLGTQTYICNVNHKPSNTKVDKKVEPKSCDKTHTCPPCPAPELLGDDSVFLFPPKPKDTLMISRTPEVTCVVVDVSEEDGEVKFNWYVDGVEVHNAKTKPREEQYNSTYRVVSVLTVLHQDWLNGKEYKCKVSNKALPAPIEKTISKAKGQPREPQVYTLPPSRDELTKNQVSLTCLVKGFYPSDIAVEWESNGQPENNYKTTPPVLDSDGSFFLYSKLTVDKSRWQQGNVFSCSVMHEALHNHYTQESLSLSP light: not shown
9 |  | 16.1 | 268 | 55.5 | 1.2 | IL6R-BP479/IL6R-L (antibody, human IgG1, kappa, name in EU numbering, copies: 2 + 2) heavy: QVQLQESGPGLVKPSETLSLTCAVSGHSISHDHAWSWVRQPPGEGLEWIGFISYSGITNYNPSLQGRVTISRDNSKNTLYLQMNSLRAEDTAVYYCARSLARTTAMDYWGEGTLVTVSSASTKGPSVFPLAPSSKSTSGGTAALGCLVKDYFPEPVTVSWNSGALTSGVHTFPAVLQSSGLYSLSSVVTVPSSSLGTQTYICNVNHKPSNTKVDKKVEPKSCDKTHTCPPCPAPDLLGDDSVFLFPPKPKDTLMISRTPEVTCVVIDLAEEDGEVKFNWYVDGVEVHNAKTKPREEQYNSTYRVVSVLTVLHQDWLNGKEYKCKVSNKALPAPIEKTISKAKGQPREPQVYTLPPSRDELTKNQVSLTCLVKGFYPSDIAVEWESNGQPENNYKTTPPVLDSDGSFFLYSKLTVDKSRWQQGNVFSCSVMHEALHNHYTQESLSLSP light: not shown
